B1: OR4K15 (parent)
chain: GUUAACGGUCAUAGGCCAUGGAAACUAGGAGCACCAUUUCGCUGCCAGUGAAGAAAUGAACAAAGAAAAUCUGGGCCAGGCAGGCAUCAAAAGAAAUAGUCUUGCGCUCAACCAGAAAGUCUGUAAUCAUUUUAAGGGUA

Variants of: B1
Test: self-cleavage, relative activity (ratio to wild type); higher = more cleavage; in vitro, sequencing; the parent is a self-cleaving ribozyme

Q: Which self-cleavage does the source give for GUUAACGGUCAUAGGCCAUGGAAACUAGGAGCACCAUUUCGCUGCCAGUGGAGAAAUGAAGAAAGAAAAUCUGGGCCAGGCAGGCAUCAAAAGAAAUAGUCUUGCGCUCAACCAGAAAGUCUGUAAUCAUUUUAAGGGUA [A51G C61G] here?
A: The self-cleavage was 0.99.

Q: For GUUAACGGUCAUAGGCCAUGGAAACUAGGAGCACCAUUUCGCUGCCAGUGGAGAAAUGAACAAAGAAAAUCUGGGCCAGGCAGGCCUCAAAAGAAAUAGUCUUGCGCUCAACCAGAAAGUCUGUAAUCAUUUUAAGGGUA [A51G A86C], which self-cleavage is on record?
A: Its self-cleavage is 0.65.

Q: For GUUAACGGUCAUAGGCCAUGGAAACUAGGAGCACCAUUUCGCUGCCAGUGGAGAAAUGAACAAAGAAAAUCUGGGCCAGGCAGGCUUCAAAAGAAAUAGUCUUGCGCUCAACCAGAAAGUCUGUAAUCAUUUUAAGGGUA [A51G A86U], which self-cleavage is on record?
A: Its self-cleavage is 1.56.

Q: For GUUAACGGUCAUAGGCCAUGGAAACUAGGAGCACCAUUUCGCUGCCAGUGGAGAAAUGAACAAAGAAAAUCUGGGCCAGGCAGGCAUCAAAAGUAAUAGUCUUGCGCUCAACCAGAAAGUCUGUAAUCAUUUUAAGGGUA [A51G A94U], which self-cleavage is on record?
A: Its self-cleavage is 1.78.

Q: With GUUAACGGUCAUAGGCCAUGGAAACUAGGAGCACCAUUUCGCUGCCAGUGGAGAAAUGAACAAAGAAAAUCUGGGCCAGGCAGGCAUCAAAAGAAUUAGUCUUGCGCUCAACCAGAAAGUCUGUAAUCAUUUUAAGGGUA [A51G A96U] as the variant, how does the self-cleavage read?
A: The self-cleavage was 0.46.

Q: For GUUAACGGUCAUAGGCCAUGGAAACUAGGAGCACCAUUUCGCUGCCAGUGGAGAAAUGAACAAAGAAAAUCUAGGCCAGGCAGGCAUCAAAAGAAAUAGUCUUGCGCUCAACCAGAAAGUCUGUAAUCAUUUUAAGGGUA [A51G G73A], which self-cleavage is on record?
A: Its self-cleavage is 0.26.

Q: For GUUAACGGUCAUAGGCCAUGGAAACUAGGAGCACCAUUUCGCUGCCAGUGGAGAAAUGAACAAAGAAAAUCUGGGACAGGCAGGCAUCAAAAGAAAUAGUCUUGCGCUCAACCAGAAAGUCUGUAAUCAUUUUAAGGGUA [A51G C76A], which self-cleavage is on record?
A: Its self-cleavage is 0.07.

Q: Which self-cleavage does the source give for GUUAACGGUCAUAGGCCAUGGAAACUAGGAGCACCAUUUCGCUGCCAGUGGAGAAAUGAACAAAGAGAAUCUGGGCCAGGCAGGCAUCAAAAGAAAUAGUCUUGCGCUCAACCAGAAAGUCUGUAAUCAUUUUAAGGGUA [A51G A67G] here?
A: The self-cleavage was 1.07.

Q: For GUUAACGGUCAUAGGCCAUGGAAACUAGGAGCACCAUUUCGCUGCCAGUGGAGAAAUGAACAAAGAAAAUCUGGGCCAGGCAGGCAUCAAAAGAAAUAGUCUUGCGCUCAACCAGAAAGUCUGUAAUUAUUUUAAGGGUA [A51G C128U], which self-cleavage is on record?
A: Its self-cleavage is 2.26.

Q: Which self-cleavage does the source give for GUUAACGGUCAUAGGCCAUGGAAACUAGGAGCACCAUUUCGCUGCCAGUGGAGAAAUGAACAAAGAAAAUCUGGGCCAGGCAGGCAUCAAAAGAAAUGGUCUUGCGCUCAACCAGAAAGUCUGUAAUCAUUUUAAGGGUA [A51G A98G] here?
A: Its self-cleavage is 0.29.

Q: For GUUAACGGUCAUAGGCCAUGGAAACUAGGAGCACCAUUUCGCUGCCAGUGGAGAAAUGAGCAAAGAAAAUCUGGGCCAGGCAGGCAUCAAAAGAAAUAGUCUUGCGCUCAACCAGAAAGUCUGUAAUCAUUUUAAGGGUA [A51G A60G], which self-cleavage is on record?
A: Its self-cleavage is 1.2.

Q: Which self-cleavage does the source give for GUUAACGGUCAUAGGCCAUGGAAACUAGGAGCACCAUUUCGCUGCCAGUGGAGAAAUGAACAAAGAAAAUCUGGGCCAGGCAGGCAUCAAAAGAAAUAGUCUUGCGCUCAACCAGAAAGUCUGUAAUCAUUUUAUGGGUA [A51G A135U] here?
A: Its self-cleavage is 0.7.

Q: Which self-cleavage does the source give for GUUAACGGUCAUAGGCCAUGGAAACUAGGAGCACCAUUUCGCUGCCAGUGGAGAAAUGAACAAAGAAAAUCUGGGCCAGGCAGGCAUCAAAAGAAAUAGUCUUGCGCUCGACCAGAAAGUCUGUAAUCAUUUUAAGGGUA [A51G A110G] here?
A: Its self-cleavage is 0.08.

Q: Which self-cleavage does the source give for GUUAACGGUCAUAGGCCAUGGAAACUAGGAGCACCAUUUCGCUGCCAGUGGAGAAAUGAACAAAGAAAAUCUGGGCCAGGCAGGCAUCAAAAGAGAUAGUCUUGCGCUCAACCAGAAAGUCUGUAAUCAUUUUAAGGGUA [A51G A95G] here?
A: Its self-cleavage is 1.7.

Q: For GUUAACGGUCAUAGGCCAUGGAAACUAGGAGCACCAUUUCGCUGCCAGUGGAGAAAUGAACAAAGAAAAUCUGGGCCAGGCAGGCAUCAAAAGAAAUAGUCUUGCGCUCAACCGGAAAGUCUGUAAUCAUUUUAAGGGUA [A51G A114G], which self-cleavage is on record?
A: Its self-cleavage is 1.1.

Q: With GUUAACGGUCAUAGGCCAUGGAAACUAGGAGCACCAUUUCGCUGCCAGUGGAGAAAUGAACAAAAAAAAUCUGGGCCAGGCAGGCAUCAAAAGAAAUAGUCUUGCGCUCAACCAGAAAGUCUGUAAUCAUUUUAAGGGUA [A51G G65A] as the variant, how does the self-cleavage read?
A: Its self-cleavage is 1.12.

Q: Which self-cleavage does the source give for GUUAACGGUCAUAGGCCAUGGAAACUAGGAGCACCAUUUCGCUGCCAGUGGAGAAAUGAACAAUGAAAAUCUGGGCCAGGCAGGCAUCAAAAGAAAUAGUCUUGCGCUCAACCAGAAAGUCUGUAAUCAUUUUAAGGGUA [A51G A64U] here?
A: Its self-cleavage is 1.75.

Q: For GUUAACGGUCAUAGGCCAUGGAAACUAGGAGCACCAUUUCGCUGCCAGUGGAGAAAUGAACAAGGAAAAUCUGGGCCAGGCAGGCAUCAAAAGAAAUAGUCUUGCGCUCAACCAGAAAGUCUGUAAUCAUUUUAAGGGUA [A51G A64G], which self-cleavage is on record?
A: Its self-cleavage is 1.42.

Q: With GUUAACGGUCAUAGGCCAUGGAAACUAGGAGCACCAUUUCGCUGCCAGUGGAGAAAUGAACAAAGAAAAUCUGGGCCAGGCAGACAUCAAAAGAAAUAGUCUUGCGCUCAACCAGAAAGUCUGUAAUCAUUUUAAGGGUA [A51G G84A] as the variant, how does the self-cleavage read?
A: Its self-cleavage is 1.78.

Q: For GUUAACGGUCAUAGGCCAUGGAAACUAGGAGCACCAUUUCGCUGCCAGUGGAGAAAUGAACGAAGAAAAUCUGGGCCAGGCAGGCAUCAAAAGAAAUAGUCUUGCGCUCAACCAGAAAGUCUGUAAUCAUUUUAAGGGUA [A51G A62G], which self-cleavage is on record?
A: Its self-cleavage is 0.33.
